Measurements taken from US20170183420.

Experiments:
Test in all cases: cell_activity
[1] = test system: ZFN 20186 (CTLA-4) (synthetic); conditions: pair 20186/20185, Cel-I, K562
[2] = test system: ZFN 20185 (CTLA-4) (synthetic); conditions: pair 20186/20185, Cel-I, K562
[3] = test system: ZFN 20190 (CTLA-4) (synthetic); conditions: pair 20190/20189, Cel-I, K562
[4] = test system: TALEN 101624 (synthetic); conditions: pair 101625/101624, K562
[5] = test system: TALEN 101620 (synthetic); conditions: pair 101623/101620, K562; 10.6 with 101622, 0 with 101621
[6] = test system: ZFN 25029 (PD1) (synthetic); conditions: pair 12942/25029, Cel-I, K562; also active in PBMC (FIG. 2)
[7] = test system: ZFN 12942 (PD1) (synthetic); conditions: pair 12942/25029, Cel-I, K562; also active in PBMC (FIG. 2)
[8] = test system: TALEN 101640 (synthetic); conditions: pair 101641/101640, K562
[9] = test system: TALEN 101632 (synthetic); conditions: pair 101633/101632, K562
[10] = test system: TALEN 101633 (synthetic); conditions: pair 101633/101632, K562
[11] = test system: TALEN 101641 (synthetic); conditions: pair 101641/101640, K562; RVD 16 printed ND
[12] = test system: TALEN 101626 (synthetic); conditions: pair 101627/101626, K562
[13] = test system: TALEN 101621 (synthetic); conditions: pair 101621/101618, K562; 18.1 with 101619, 0 with 101620
[14] = test system: TALEN 101627 (synthetic); conditions: pair 101627/101626, K562
[15] = test system: TALEN 101618 (synthetic); conditions: pair 101621/101618, K562; 14.7 with 101622, 6.8 with 101623
[16] = test system: ZFN 20189 (CTLA-4) (synthetic); conditions: pair 20190/20189, Cel-I, K562

Sequence: ACAGTGCTTCGGCAGGCTGACAGCCAGG (double strand) [CTLA-4 site 20186]
- activity [1]: 3.3 % indels

Sequence: ACCCGGACCTCAGTGGCTTTGCCTGGAG (double strand) [CTLA-4 site 20185]
- activity [2]: 3.3 % indels

Sequence: ACTACCTGGGCATAGGCAACGGAACCCA (double strand) [CTLA-4 site 20190]
- activity [3]: 1.8 % indels

Sequence: ATGCAGATCCCACAGGCGC (double strand) [PD1 site 101620/101624]
- activity [4]: 10.1 % NHEJ
- activity [5]: 11.6 % NHEJ

Sequence: CAGTCGTCTGGGCGGTGCT (double strand) [PD1 site 25029]
- activity [6]: 14.7 % NHEJ

Sequence: CCAGGGCGCCTGTGGGATCTGCATGCCT (double strand) [PD1 site 12942]
- activity [7]: 14.7 % NHEJ

Sequence: CTACCTCTGTGGGGCCATCTC (double strand) [PD1 site 101632/101640]
- activity [8]: 23 % NHEJ
- activity [9]: 14.7 % NHEJ

Sequence: CTCTCTTTGATCTGCGCCTTG (double strand) [PD1 site 101633/101641]
- activity [10]: 14.7 % NHEJ
- activity [11]: 23 % NHEJ

Sequence: CTTCTCCCCAGCCCTGCTCGT (double strand) [PD1 site 101626]
- activity [12]: 12.5 % NHEJ

Sequence: GTAGCACCGCCCAGACGACTG (double strand) [PD1 site 101621]
- activity [13]: 23.5 % NHEJ

Sequence: GTGAAGGTGGCGTTGTCCCCT (double strand) [PD1 site 101627]
- activity [14]: 12.5 % NHEJ

Sequence: GTGCTCCAGGCATGCAGATCC (double strand) [PD1 site 101618]
- activity [15]: 23.5 % NHEJ

Sequence: TGGCGGTGGGTACATGAGCTCCACCTTG (double strand) [CTLA-4 site 20189]
- activity [16]: 1.8 % indels
